Data taken from publication PMC9993015.
Like-named read-outs stand apart in the source and are kept apart here.

Tests used:
[1] = target: histone H4 (Homo sapiens) (UniProt P62805); details: cited from earlier work
[2] = target: histone H3 (Homo sapiens) (UniProt P68431); details: cited from earlier work
[3] = target: histone H3 (Homo sapiens) (UniProt P68431); details: cited from earlier work; remark: listed apart in the source
[4] = target: histone H3 from calf thymus histones (UniProt P68432); experiment: GST pull-down, immunoblot with α-H3, band level printed under lane; details: calf thymus histones (CTH); CTH input 5%

53BP1 tandem TUDOR domain (from UniProt Q12888)
Kd [1]: 20 µM
Kd [2]: 2000 µM

EED WD40 (from UniProt O75530)
Kd [3]: > 400 µM

GST-ING3PHD (PHD domain of the H3K4me3 reader ING3) W385A
response [4]: 0.3
